According to the supplement of paper PMC10567573:

B1: MCOLN1 (parent)
chain: EEEDLRRRLKYFFMSPCDKFRAKG
B2: VAMP4 (parent)
chain: FLRGPSGPRFGPRNDKIKHVQNQV

Variants of: B1
Test: protein stability index of a GFP-peptide fusion (GPS, HEK-293T) (PSI 1-6); higher = more stable
Conditions: c terminus: a fixed tail appended
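Note: lentivirally expressed fusions sorted by FACS into six bins by GFP to DsRed ratio, PSI derived from sequencing read proportions per bin multiplied by bin number.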

In order of rising protein stability index:
1. K23W  1.2
2. G24W  1.33
3. K23M  1.33
4. A22W  1.36
5. K23Y  1.53
6. K19R  1.55
7. K23F  1.64
8. K19W  1.69
9. G24R  1.73
10. K19I  1.74
11. G24Y  1.78
12. G24F  1.8
13. R21W  1.81
14. G24C  1.82
15. K23G  1.84
16. K23H  1.84
17. A22L  1.85
18. K23L  1.86
19. A22Y  1.88
20. A22I  1.91
21. A22R  1.95
22. A22C  1.97
23. K23I  2.01
24. G24H  2.07
25. A22M  2.13
26. A22Q  2.13
27. K19L  2.14
28. F20I  2.14
29. A22E  2.18
30. R21L  2.19
31. A22T  2.19
32. K19F  2.21
33. A22N  2.21
34. F20W  2.21
35. K23S  2.26
36. K19M  2.27
37. A22S  2.27
38. F20Y  2.28
39. G24M  2.29
40. G24V  2.29
41. A22F  2.29
42. K23T  2.31
43. G24N  2.35
44. K19G  2.37
45. G24I  2.37
46. R21F  2.4
47. K19S  2.4
48. G24P  2.4
49. G24D  2.4
50. G24A  2.43
51. K23C  2.43
52. K23E  2.47
53. K19N  2.48
54. A22K  2.5
55. K23P  2.5
56. R21I  2.51
57. K19V  2.51
58. R21A  2.52
59. G24T  2.52
60. A22H  2.52
61. R21Y  2.54
62. G24L  2.55
63. R21V  2.56
64. K23N  2.56
65. G24S  2.57
66. K23Q  2.59
67. F20H  2.61
68. A22D  2.64
69. R21C  2.65
70. K19H  2.65
71. K23R  2.65
72. K19P  2.66
73. A22G  2.67
74. R21M  2.72
75. K19Q  2.73
76. K19Y  2.75
77. F20M  2.77
78. K23A  2.78
79. F20C  2.9
80. R21K  2.93
81. R21G  3.01
82. R21N  3.01
83. K19T  3.01
84. R21Q  3.04
85. F20R  3.04
86. F20G  3.04
87. R21T  3.05
88. F20V  3.06
89. G24E  3.07
90. R21P  3.09
91. R21S  3.1
92. G24K  3.11
93. R21D  3.15
94. F20Q  3.23
95. R21H  3.28
96. F20L  3.33
97. R21E  3.45
98. F20T  3.45
99. K23D  3.56
100. F20S  3.58
101. F20K  3.58
102. F20P  3.59
103. F20N  3.62
104. F20D  3.79
105. F20A  3.82
106. G24Q  4.48

Variants of: B2
Test: as above
Conditions: c terminus: a fixed tail appended

In order of rising protein stability index:
1. I17W  1.53
2. G7R  1.71
3. Q23W  1.84
4. Q21M  1.85
5. R3W  2.02
6. H19R  2.03
7. R3V  2.08
8. D15Y  2.1
9. Q21Y  2.11
10. L2C  2.11
11. G11I  2.12
12. S6V  2.12
13. K18Y  2.15
14. N14M  2.15
15. N22H  2.18
16. G4C  2.24
17. N14A  2.35
18. G7L  2.37
19. G7D  2.44
20. G7V  2.44
21. V20Y  2.46
22. G11L  2.47
23. L2A  2.48
24. N22Q  2.48
25. D15Q  2.5
26. F1Y  2.52
27. N22P  2.53
28. Q23S  2.54
29. Q21G  2.55
30. N14L  2.55
31. G11K  2.57
32. R3P  2.58
33. G11D  2.63
34. S6F  2.64
35. R13G  2.74
36. K16T  2.74
37. G7N  2.74
38. R9T  2.75
39. G7S  2.77
40. I17F  2.81
41. H19A  2.81
42. G4H  2.85
43. F1C  2.85
44. L2G  2.87
45. P12K  2.89
46. V24S  2.9
47. R9D  2.91
48. G11N  2.95
49. F10I  2.99
50. R9N  3.01
51. D15H  3.02
52. G7I  3.02
53. Q23P  3.04
54. K16N  3.18
55. V20K  3.23
56. K18A  3.24
57. N22S  3.25
58. V20R  3.26
59. F1M  3.27
60. P5H  3.3
61. F1I  3.38
